In patent publication US20150044137A1:
Values joined by “and” are separate entries in the source; they are usually repeats but may differ in a detail not shown here. Equal values may be shown once.

Assays:
[1] = target: HIV-1 gp120 (HIV-1)
[2] = target: Yu2 gp120 HIV-1 Env protein (HIV-1 (strain Yu2)) (UniProt P35961)

| Substance | contribution of CDR H1 to gp120-binding surface area [1] | contribution of CDR H2/FR3 to gp120-binding surface area [1] | contribution of CDR H3 to gp120-binding surface area [1] | total gp120-binding surface area (Total A 2) [1] | IC50 (read off the curve) [2] |
| --- | --- | --- | --- | --- | --- |
| VRC01 (antibody) | 44 Å2 | 701 Å2 | 122 Å2 | 867 Å2 | – |
| CD4-Ig (Fc fusion) | – | – | – | – | 0.08 µg/mL and 0.1 µg/mL |
